Where no end group is shown, it is not given here. [ ]: non-standard residue; d: D form. pS = N[C@@H](COP(=O)(O)O)C(=O)O

The target in assay [1] is T1, HA-tagged human NPM2 (nucleoplasmin 2) (human, UniProt Q86SE8 1-214).
T1 sequence (looked up): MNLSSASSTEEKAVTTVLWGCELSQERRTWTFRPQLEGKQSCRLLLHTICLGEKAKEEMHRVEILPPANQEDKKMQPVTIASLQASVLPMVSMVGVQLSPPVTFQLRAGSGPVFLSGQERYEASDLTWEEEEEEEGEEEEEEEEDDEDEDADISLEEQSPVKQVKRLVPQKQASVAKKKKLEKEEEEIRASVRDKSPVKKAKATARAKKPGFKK
Put plainly: pull-down.

For a further assay, the target named is HA-tagged human HIRA (human, UniProt P54198 1-1017). Put plainly: pull-down.
Sequence of HA-tagged human HIRA (P54198 whole entry): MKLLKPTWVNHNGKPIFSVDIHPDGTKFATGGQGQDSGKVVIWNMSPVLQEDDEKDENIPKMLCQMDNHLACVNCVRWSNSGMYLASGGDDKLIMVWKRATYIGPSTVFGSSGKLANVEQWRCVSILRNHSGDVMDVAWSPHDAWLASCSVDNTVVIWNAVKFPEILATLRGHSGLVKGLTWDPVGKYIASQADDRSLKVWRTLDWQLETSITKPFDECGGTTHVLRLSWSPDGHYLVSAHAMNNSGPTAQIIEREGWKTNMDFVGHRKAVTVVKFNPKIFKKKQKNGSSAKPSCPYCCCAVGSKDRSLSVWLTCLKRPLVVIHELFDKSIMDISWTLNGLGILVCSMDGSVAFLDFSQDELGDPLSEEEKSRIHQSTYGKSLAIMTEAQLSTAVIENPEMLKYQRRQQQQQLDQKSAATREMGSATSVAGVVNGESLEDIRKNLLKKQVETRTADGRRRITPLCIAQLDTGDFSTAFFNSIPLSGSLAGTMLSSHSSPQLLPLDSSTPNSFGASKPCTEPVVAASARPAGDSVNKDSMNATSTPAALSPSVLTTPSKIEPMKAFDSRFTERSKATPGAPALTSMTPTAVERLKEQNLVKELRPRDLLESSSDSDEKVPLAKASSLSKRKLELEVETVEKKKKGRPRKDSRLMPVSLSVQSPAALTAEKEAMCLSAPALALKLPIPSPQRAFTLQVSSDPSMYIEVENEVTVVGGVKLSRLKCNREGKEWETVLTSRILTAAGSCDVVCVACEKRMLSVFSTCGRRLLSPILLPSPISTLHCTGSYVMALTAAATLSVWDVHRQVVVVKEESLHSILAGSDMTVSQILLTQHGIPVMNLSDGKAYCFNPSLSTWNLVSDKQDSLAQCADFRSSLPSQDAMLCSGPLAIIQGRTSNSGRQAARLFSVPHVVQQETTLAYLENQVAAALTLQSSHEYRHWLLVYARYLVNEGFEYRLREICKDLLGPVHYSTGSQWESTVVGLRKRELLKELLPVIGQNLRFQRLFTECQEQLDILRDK

B1: Protamine 1 (P1), wild type, not phosphorylated (peptide, UniProt P02319 1-51, looked up)
chain: MARYRCCRSKSRSRCRRRRRRCRRRRRRCCRRRRRRCCRRRRSYTIRCKKY
On to B1, for which the binding result in assay [1] is “binds”.

B2: Protamine 1 (P1) S9A S43A double mutant (peptide, UniProt P02319 1-51, looked up)
chain: MARYRCCRAKSRSRCRRRRRRCRRRRRRCCRRRRRRCCRRRRAYTIRCKKY
Take B2: the binding result in assay [1] is reported as “binds”.

B3: Protamine 1 (P1) S43A, not phosphorylated (peptide, UniProt P02319 1-51, looked up)
chain: MARYRCCRSKSRSRCRRRRRRCRRRRRRCCRRRRRRCCRRRRAYTIRCKKY
On to B3, for which, in assay [1], the binding result is reported as “binds”.

B4: Protamine 1 (P1) S43A, phosphorylated by SRPK1 (peptide, UniProt P02319 1-51, looked up)
chain: MARYRCCR[pS]KSRSRCRRRRRRCRRRRRRCCRRRRRRCCRRRRAYTIRCKKY
modifications: cysteine pairing not given here
Turning to B4, the binding result (in assay [1]; with HA-tagged human HIRA) was “binds” throughout.

B5: Protamine 1 (P1) S9A, phosphorylated by SRPK1 (peptide, UniProt P02319 1-51, looked up)
chain: MARYRCCRAKSRSRCRRRRRRCRRRRRRCCRRRRRRCCRRRR[pS]YTIRCKKY
modifications: cysteine pairing not given here
For the molecule B5, the binding result (in assay [1]; in the assay with HA-tagged human HIRA) was “binds” in each case.

B6: Protamine 1 (P1) S9A, not phosphorylated (peptide, UniProt P02319 1-51, looked up)
chain: MARYRCCRAKSRSRCRRRRRRCRRRRRRCCRRRRRRCCRRRRSYTIRCKKY
In the case of B6, in assay [1], the binding result is on record as “binds”.

B7: Protamine 1 (P1), wild type, phosphorylated by SRPK1 (peptide, UniProt P02319 1-51, looked up)
chain: MARYRCCR[pS]KSRSRCRRRRRRCRRRRRRCCRRRRRRCCRRRR[pS]YTIRCKKY
modifications: cysteine pairing not given here
Turning to B7, the binding result in assay [1] was “binds”.
